The subject of this assay is Tex-loxP-EG cells. Description: Protein transduction: delivery of Cre recombinase read out by GFP expression. Format: cell-based, mouse. Particulars: 5 or 10 µM protein, 3 h, GFP measured 48 h after, FACS, three independent experiments. As to the method:
To determine the protein-transduction activity of VPTLK and KLPVM, these peptides were added to the N-terminus of Cre DNA recombinase and the resulting CPP5-Cre fusion proteins were added separately to the culture medium of Tex-loxP-EG cells, which are engineered to express GFP through Cre-dependent excision of a chromosomal lox P site. This method was developed by S. Dowdy’s group to determine the protein-transduction activity of TAT peptide.
First, cells were cultured for 3 h in serum-free medium in the presence of 5 or 10 µM Cre, TAT-Cre, KLPVM-Cre, or VPTLK-Cre. GFP expression was measured 48 h after the incubation with the CPP-Cre proteins. […]
Figure 5 Protein-Transduction activity (PTDs) of VPTLK and KLPVM determined by the delivery of Cre recombinase into cells. a. […] The delivery of Cre into Tex-lox P-EG cells was evaluated by GFP expression as previously reported. GFP expression was analyzed 48 h after the incubation of cells with Cre proteins. b and c. […] Mean GFP fluorescence intensity of Tex-loxP-EG cells incubated with 5 or 10 μM Cre recombinant proteins under serum-free conditions. […]
Tex lox P EG cells were established from thymoma cells of p53-deficient mice, which were genetically engineered to have a lox P site flanking the EGFP gene. […] Expression of GFP was analyzed by fluorescence microscopy and by FACS [11].

B1: Cre: His-tagged recombinant Cre DNA recombinase without TAT or CPP5s (protein, UniProt P06956 1-343, looked up)
Recombinase cre: MSNLLTVHQNLPALPVDATSDEVRKNLMDMFRDRQAFSEHTWKMLLSVCRSWAAWCKLNNRKWFPAEPEDVRDYLLYLQARGLAVKTIQQHLGQLNMLHRRSGLPRPSDSNAVSLVMRRIRKENVDAGERAKQALAFERTDFDQVRSLMENSDRCQDIRNLAFLGIAYNTLLRIAEIARIRVKDISRTDGGRMLIHIGRTKTLVSTAGVEKALSLGVTKLVERWISVSGVADDPNNYLFCRVRKNGVAAPSATSQLSTRALEGIFEATHRLIYGAKDDSGQRYLAWSGHSARVGAARDMARAGVSIPEIMQAGGWTNVNIVMNYIRNLDSETGAMVRLLEDGD
modifications: His tag
notes: His-tagged recombinant Cre DNA recombinase without TAT or CPP5s
Regarding B1, the “GFP expression induced by Cre protein, serum-free medium” value is on record as “did not”.
